Results from patent US8304236B2, “Modified biotin-binding protein” (Japan Tobacco Inc., priority 2008, dated 2012).
Entries after “also recorded” stand apart in the source; their conditions may differ.

Columns and labels:
[1] = Isoelectric focusing electrophoresis (pI observed); format: physicochemical; conditions: pH 3 to 10 gel
Experimental: The isoelectric point of each low-pI TM2 was measured by isoelectric focusing electrophoresis using an XCell SureLock Mini-Cell (Invitrogen). In accordance with the instruction, each low-pI TM2 (500 ng) and an IEF sample buffer (pH 3 to 10 (2×), Invitrogen) were mixed and were added to a polyacrylamide gel (pH 3 to 10, IEF Gel, Invitrogen) at a pH ranging from 3 to 10, followed by electrophoresis at a variable voltage of 100 V for 1 hour, 200 V for 1 hour, and 500 V for 45 minutes in this order.
After the electrophoresis, the gel was shaken in a blotting buffer (0.7% acetic acid) for 10 minutes and then was transferred onto a PVDF membrane at 10 V for 1 hour using an XCell ll Blot Module (Invitrogen). The PVDF membrane was subjected to reaction with anti-TM2 rabbit antibody (PCT/W2006/326260) serving as a primary antibody and with alkaline phosphate-labeled anti-rabbit IgG antibody (BIO-RAD) serving as a secondary antibody, followed by detection of bands with Alkaline Phosphatase Substrate Kit II
The isoelectric point of the high-affinity TM2 was measured by isoelectric focusing electrophoresis using an XCell SureLock Mini-Cell (Invitrogen). […] The electric point of TM2 D40N having replacement of the […] amino acid was higher than that of the wild type TM2 also in the isoelectric focusing electrophoresis.
The isoelectric point of HALU TM2 was measured by isoelectric focusing electrophoresis using an XCell SureLock Mini-Cell (Invitrogen). In accordance with the instruction, bands of each HALU TM2 (4 μg) were detected by CBB staining. […] The observed isoelectric point of TM2 D40N was 9.7, and was reduced to 8.9 after introduction of mutation of R104E and was reduced to 7.3 to 7.5 after further introduction of mutation of K141E.

human serum protein = experiment: Non-specific adsorption of low-pI TM2 to human serum protein-immobilized magnetic beads; format: binding; conditions: for decrease of adsorption to human serum protein compared to the wild type TM2 / non-specific binding to human serum protein compared to TM2: FIG. 1; for non-specific binding and adsorption, % of that of the wild type TM2: summary of Example 1, paragraphs 1-9) and 1-11); for Non-specific binding of serum protein (%): wild type TM2 = 100
Experimental: In this embodiment, non-specific binding to human serum was investigated as non-specific adsorption of low-pI TM2 to serum protein-immobilized magnetic beads. Specifically, in order to investigate the non-specific binding of low-pI TM2, the amount of low-pI TM2 adsorbed to magnetic beads to which human serum protein was covalently bonded was measured. TM2 K26A, TM2 K73Q, TM2 R104E, TM2 K141E, and TM2 R104EK141E, which were highly expressed in Escherichia coli, were used as the low-pI TM2 to be investigated.
Human serum protein and magnetic beads were bound to each other as follows. Magnetic beads having surfaces coated with carboxyl groups (Dynabeads M-270 Carboxylic Acid, Dynal, 210 μL) were washed with 0.01 N sodium hydroxide (210 μL) for 10 minutes and then with ultrapure water (210 μL) for 10 minutes three times. To the washed magnetic beads, 1-ethyl-3-(3-dimethylaminopropyl)carbodiimide hydrochloride (EDC, PIERCE) dissolved in cooled ultrapure water was added into a final concentration of 0.2 M, and the mixture was shaken at room temperature for 30 minutes. Then, the magnetic beads were washed with cooled ultrapure water (210 μL) and then with 50 mM MES buffer (pH 5.0, 210 μL).
To the magnetic beads, 1 mg/mL human serum protein (CHEMICON, 210 μL) dialyzed with 50 mM MES buffer (pH 5.0) was added. The mixture was shaken at room temperature for 30 minutes to covalently bind the human serum protein to the magnetic beads. The magnetic beads were collected with a magnet to remove the supernatant. The unreacted active groups on the beads were eliminated with 50 mM tris buffer (pH 7.0, 210 μL), and then the magnetic beads were blocked with a PBS buffer (420 μL) containing 0.5% BSA and 0.1% Tween 20. The magnetic beads were suspended in a PBS buffer (210 μL) to obtain human serum protein-immobilized magnetic beads.
The magnetic beads (7 μL) and 0.56 μg/mL of each low-pI TM2 (100 μL) were mixed for reaction at room temperature for 1 hour. The magnetic beads were collected with a magnetic, and the supernatant was removed. After washing with 20 mM potassium phosphate buffer (500 μL) containing 500 mM sodium chloride, the magnetic beads were mixed with 20 μL of 2×SDS sample buffer (250 mM Tris-HCl, pH 6.8, 20% 2-mercaptoethanol, 20% SDS, 20% glycerol), followed by heating at 95° C. for 20 minutes to dissociate the low-pI TM2 from the magnetic beads.
This sample was subjected to SDS-PAGE and then western blotting analysis to determine the amount of the low-pI TM2. Anti-tamavidin 2 rabbit antibody and alkaline phosphatase-labeled anti-rabbit IgG goat antibody were used as the primary antibody and the secondary antibody, respectively. The bands were detected with Alkaline Phosphatase Substrate Kit II <VECTOR Black> (VECTRO) and were quantified with Las-3000 (FUJIFILM).

[2] = Biotin-binding test (Biacore 3000, biotin-LC-BSA immobilized)
Experimental: High-purity BSA (Sigma, 2 mg) and NHS-LC-biotin (Pierce, 1 mg) were dissolved in 50 mM sodium borate (pH 8.0, 1 mL) and were incubated at 4° C. for 2 hours. The solution was put into a dialysis tube (MWCO 6-8,000) and was dialyzed with 50 mM sodium carbonate (pH 6.7) at 4° C. overnight. The resulting biotin-LC-BSA conjugate (MW: 67 kDa, 30 μM) was used as a ligand for a Biacore (registered trademark) biosensor.
Biotin-LC-BSA and BSA serving as a negative control were immobilized on CM5 sensor chips by amine coupling method. The amount for immobilization was adjusted to about 200 RU. The chips to which BSA was immobilized were disposed in flow cells 1 and 3, while the chips to which biotin-LC-BSA was immobilized were disposed in flow cells 2 and 4.
Accordingly, seven step measurement (3.125, 6.25, […], 25, 50, 100, and 200 nM) was conducted from the lowest concentration, without recycling steps. The data of BSA as reference was deducted from the data of BSA-LC-biotin. The measurement was performed at 25° C. The resulting sensorgrams were subjected to reaction kinetics analysis using analysis software BIAevaluation ver. 4.1 with a 1:1 binding model to calculate the binding rate constant (ka) and the dissociation rate constant (kd). The dissociation constant (KD) was determined from kd/ka. In the case where no recycling step is employed, the Rmax (maximum amount of binding analyte) decreases at each measurement. Accordingly, in the analysis, the Rmax was calculated by conducting local fitting for each concentration, and only the data of analyte concentrations that were approximated to the 1:1 binding model was employed.
TM2 and HALU TM2 used as analytes were prepared by purification with 2-iminobiotin agarose in accordance with a common method and dialysis with 20MM KPi (pH 7) overnight. The analytes were each adjusted to about 50 μg/mL in 10 mM acetate buffer (pH 5, Biacore).
The immobilization of the ligand and measurement and analysis of specific interaction with the analytes were conducted as in paragraph 2-7-2).

Molecule | pI observed [1] | decrease of adsorption to human serum protein compared to the wild type TM2 (human serum protein) [%] | non-specific binding to human serum protein compared to TM2 (human serum protein) | non-specific binding and adsorption, % of that of the wild type TM2 (human serum protein) | Non-specific binding of serum protein (%) (human serum protein) | biotin-binding ability (affinity) compared to the wild type TM2 [2] | dissociation from biotin-LC-BSA ([2]; dissociation monitored for 60 minutes)
TM2 K26A: TM2 mutant in which lysine at position 26 was replaced with alanine; SEQ ID NO: 4 (protein, Synthetic TM2 K26A) MSDVQSSLTGTWYNELNSKMELTANADGTLTGKYLSKVGDVYVPYPLSGRYNLQPPAGQGVALGWAVSWENSKIHSATTWSGQFFSESSPVILTQWLLSSSTARGDVWESTLVGNDSFTKTAPTEQQIAHAQLHCRAPRLK | 7.3 to 7.6 | 30 | significantly low | about 60% | 68 |  | 
TM2 K33TK37AR104E: TM2 mutant, lysine 33 to threonine, lysine 37 to alanine, arginine 104 to glutamic acid; SEQ ID NO: 14 (protein, Synthetic TM2 K33TK37AR104E) MSDVQSSLTGTWYNELNSKMELTANKDGTLTGTYLSAVGDVYVPYPLSGRYNLQPPAGQGVALGWAVSWENSKIHSATTWSGQFFSESSPVILTQWLLSSSTAEGDVWESTLVGNDSFTKTAPTEQQIAHAQLHCRAPRLK | 5.9 to 6.0 |  |  |  |  |  | 
TM2 R104E: TM2 mutant in which arginine at position 104 was replaced with glutamic acid; SEQ ID NO: 8 (protein, Synthetic TM2 R104E) MSDVQSSLTGTWYNELNSKMELTANKDGTLTGKYLSKVGDVYVPYPLSGRYNLQPPAGQGVALGWAVSWENSKIHSATTWSGQFFSESSPVILTQWLLSSSTAEGDVWESTLVGNDSFTKTAPTEQQIAHAQLHCRAPRLK | 7.0 to 7.5 | 10 |  |  | 90 |  | 
TM2 K33TK37A: TM2 mutant, lysine 33 replaced with threonine and lysine 37 with alanine; SEQ ID NO: 12 (protein, Synthetic TM2 K33TK37A) MSDVQSSLTGTWYNELNSKMELTANKDGTLTGTYLSAVGDVYVPYPLSGRYNLQPPAGQGVALGWAVSWENSKIHSATTWSGQFFSESSPVILTQWLLSSSTARGDVWESTLVGNDSFTKTAPTEQQIAHAQLHCRAPRLK | 6.2 |  |  |  |  |  | 
TM2 K141E: TM2 mutant in which lysine at position 141 was replaced with glutamic acid; SEQ ID NO: 10 (protein, Synthetic TM2 K141E) MSDVQSSLTGTWYNELNSKMELTANKDGTLTGKYLSKVGDVYVPYPLSGRYNLQPPAGQGVALGWAVSWENSKIHSATTWSGQFFSESSPVILTQWLLSSSTARGDVWESTLVGNDSFTKTAPTEQQIAHAQLHCRAPRLE | 6.6 to 7.2 | 40 | significantly low | about 60% | 58 |  | 
TM2 K19T: TM2 mutant in which lysine at position 19 is replaced with threonine; SEQ ID NO: 18 (protein, Synthetic TM2 K19T) MSDVQSSLTGTWYNELNSTMELTANKDGTLTGKYLSKVGDVYVPYPLSGRYNLQPPAGQGVALGWAVSWENSKIHSATTWSGQFFSESSPVILTQWLLSSSTARGDVWESTLVGNDSFTKTAPTEQQIAHAQLHCRAPRLK | 6.6 to 7.5 |  |  |  |  |  | 
TM2 K73Q: TM2 mutant in which lysine at position 73 was replaced with glutamine; SEQ ID NO: 6 (protein, Synthetic TM2 K73Q) MSDVQSSLTGTWYNELNSKMELTANKDGTLTGKYLSKVGDVYVPYPLSGRYNLQPPAGQGVALGWAVSWENSQIHSATTWSGQFFSESSPVILTQWLLSSSTARGDVWESTLVGNDSFTKTAPTEQQIAHAQLHCRAPRLK | 7.7 | 40 | significantly low | about 60% | 55 |  | 
TM2 D40N: TM2 mutant in which aspartic acid at position 40 was replaced with asparagine; SEQ ID NO: 20 (protein, Synthetic TM2 D40N) MSDVQSSLTGTWYNELNSKMELTANKDGTLTGKYLSKVGNVYVPYPLSGRYNLQPPAGQGVALGWAVSWENSKIHSATTWSGQFFSESSPVILTQWLLSSSTARGDVWESTLVGNDSFTKTAPTEQQIAHAQLHCRAPRLK | 9.7 |  |  |  |  | increased; also recorded: enhanced | not dissociated
